Assay results as given in patent US20140105915A1 (GlaxoSmithKline, published 2014).

T1: human BCMA on cells (human, UniProt Q02223 1-184)
T1 sequence (looked up): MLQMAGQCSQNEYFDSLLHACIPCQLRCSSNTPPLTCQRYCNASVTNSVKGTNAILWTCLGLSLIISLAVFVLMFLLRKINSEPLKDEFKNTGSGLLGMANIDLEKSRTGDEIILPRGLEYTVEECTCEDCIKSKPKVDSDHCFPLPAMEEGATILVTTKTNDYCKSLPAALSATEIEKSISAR

T2: recombinant human BCMA (in house) (human, UniProt Q02223 4-53, limits assumed)
T2 construct: Analyte in the ProteOn runs; also called Human in house BCMA; In house human BCMA
T2 chain (looked up): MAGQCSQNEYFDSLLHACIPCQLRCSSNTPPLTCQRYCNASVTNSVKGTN


Experiments:
[1] = target: T3, recombinant human BCMA Fc 4-53 (human); assay: competition ELISA, coated recombinant human BCMA Fc 4-53, blocked ligand recombinant human BAFF (6 ng/mL), biotinylated anti-BAFF detection [A]
T3 construct: also called CD33-hBCMA ECD (4-53) TEV-Fc; recombinant BCMA coated on an ELISA plate
Protocol: 96 well flat bottomed plates were coated overnight with 1 μg/mL solution of recombinant human BCMA Fc 4-53 in PBS. Following a wash step using 0.05% TWEEN20, plates were blocked with 2% Bovine Serum Albumin solution in PBS for 1 hour at room temperature. […] 40 μL of 2% BSA was added to the relevant control wells. […] Equivalent volume of 2% BSA was added to the relevant control wells. Plates were allowed to incubate for 2 hours at room temperature, after which they were washed as before. […] Following a wash step, 50 μL of a 1:4000 dilution of Streptavidin-HRP (Amersham RPN4401) was added to each well and incubated for 30 minutes at room temperature. The wash process was repeated again followed by the addition of 100 μL of Tetramethylbenzidine substrate solution (T8665, Sigma) into each well. Plates were incubated for 20-25 minutes at room temperature, wrapped in foil. The reaction was stopped with the addition of 100 μL of 1M H₂SO₄. Optical density was determined at 450 nm using Spectromax reader.

[2] = target: T1, human BCMA on cells; assay: cell-based or functional assay
[3] = target: T2, recombinant human BCMA (in house); assay: SPR ProteOn XPR36, mAb captured on Protein A, 25C, run 2
Protocol: The initial screen of CA8 chimeric and humanised variants was carried out on the ProteOn XPR36 (Biorad). The method was as follows; Protein A was immobilised on a GLC chip (Biorad, Cat No: 176-5011) by primary amine coupling, CA8 variants were then captured on this surface and recombinant human BCMA (in house or commercial US Biological, B0410) materials (run 2 only)) passed over at 256, 64, 16, 4, 1 nM with a OnM injection (i.e. buffer alone) used to double reference the binding curves, the buffer used is the HBS-EP buffer. 50 mM NaOH was used to regenerate the capture surface. The data was fitted to the 1:1 model using the analysis software inherent to the ProteOn XPR36. […] Both runs were carried out at 25° C.

[4] = target: T2, recombinant human BCMA (in house); assay: SPR ProteOn XPR36, mAb captured on Protein A, 25C, run 1
[5] = target: T4, cyno BCMA on HEK293 cells (cyno, UniProt A0A2K5UD97 1-183); assay: FMAT, HEK293 cells transfected with cyno BCMA, anti-human IgG FMAT Blue detection
T4 construct: whole, on cells; also called cyno BCMA HEK293
Protocol: (§1) Cryopreserved transfected human, cyno BCMA and mock transfected HEK293 cells were recovered from LN2 storage. […] The assay plates were left for a minimum of 90 minutes before the result was read on the AB18200 (FMAT) plate reader.

[6] = target: T1, human BCMA on cells; assay: FMAT, HEK293 cells transfected with human BCMA, anti-human IgG FMAT Blue detection
Protocol: as §1

T4 sequence (A0A2K5UD97 entry or part of it): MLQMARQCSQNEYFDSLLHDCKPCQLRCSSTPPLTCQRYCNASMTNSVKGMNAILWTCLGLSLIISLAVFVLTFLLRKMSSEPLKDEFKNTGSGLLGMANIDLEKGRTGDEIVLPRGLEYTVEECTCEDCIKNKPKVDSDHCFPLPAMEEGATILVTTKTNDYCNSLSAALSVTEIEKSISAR

Binder	binding result [3]	other results
J6M0 potelligent (antibody, human IgG1, kappa, V domains shown, afucosylated (Potelligent) Fc glycan, Same chains as J6M0, made in FUT8-deficient cells (afucosylated); human IgG1/kappa; also called J6M0 potelligent version; afucosylated (Potelligent) J6M0) VH: QVQLVQSGAEVKKPGSSVKVSCKASGGTFSNYWMHWVRQAPGQGLEWMGATYRGHSDTYYNQKFKGRVTITADKSTSTAYMELSSLRSEDTAVYYCARGAIYDGYDVLDNWGQGTLVTVSS VL: DIQMTQSPSSLSASVGDRVTITCSASQDISNYLNWYQQKPGKAPKLLIYYTSNLHSGVPSRFSGSGSGTDFTLTISSLQPEDFATYYCQQYRKLPWTFGQGTKLEIKR		IC50 (read off the curve) [1]: ~0.8 µg/mL; IC50 for inhibition of APRIL signalling (phosphorylated NFkappaB in washed H-929 cells, MSD assay) [2]: 2.43 µg/mL; IC50 for inhibition of BAFF signalling (phosphorylated NFkappaB in washed H-929 cells, MSD assay) [2]: 0.91 µg/mL
CA8 humanised J7M1 (antibody, human IgG1, kappa, V domains shown, humanised, human IgG1/kappa) VH: QVQLVQSGAEVKKPGSSVKVSCKASGYTFTNYWMHWVRQAPGQGLEWMGATYRGHSDTYYNQKFKGRVTITADKSTSTAYMELSSLRSEDTAVYYCARGAIYDGYDVLDNWGQGTLVTVSS VL: DIQMTQSPSSLSASVGDRVTITCSASQDISNYLNWYQQKPGKAPKLLIYYTSNLHSGVPSRFSGSGSGTDYTLTISSLQPEDFATYYCQQYRKLPWTFGQGTKLEIKR	binds	
CA8 humanised J8M1 (antibody, human IgG1, kappa, V domains shown, humanised, human IgG1/kappa) VH: QVQLVQSGAEVKKPGSSVKVSCKASGYTFTNYWMHWVRQAPGQGLEWMGATYRGHSDTYYNQKFKGRVTITADKSTSTAYMELSSLRSEDTAVYYCTRGAIYDGYDVLDNWGQGTLVTVSS VL: DIQMTQSPSSLSASVGDRVTITCSASQDISNYLNWYQQKPGKAPKLLIYYTSNLHSGVPSRFSGSGSGTDYTLTISSLQPEDFATYYCQQYRKLPWTFGQGTKLEIKR	binds	
CA8 humanised J9M2 (antibody, human IgG1, kappa, V domains shown, humanised, human IgG1/kappa) VH: QVQLVQSGAEVKKPGSSVKVSCKGSGYTFTNYWMHWVRQAPGQGLEWIGATYRGHSDTYYNQKFKGRATLTADTSTSTAYMELSSLRSEDTAVYYCTRGAIYDGYDVLDNWGQGTLVTVSS VL: DIQLTQSPSSLSASVGDRVTITCSASQDISNYLNWYQQKPGKAPELVIYYTSNLHSGVPSRFSGSGSGTDYTLTISSLQPEDFATYYCQQYRKLPWTFGQGTKLEIKR	binds	
CA8 humanised J8M0 (antibody, human IgG1, kappa, V domains shown, humanised, human IgG1/kappa) VH: QVQLVQSGAEVKKPGSSVKVSCKASGYTFTNYWMHWVRQAPGQGLEWMGATYRGHSDTYYNQKFKGRVTITADKSTSTAYMELSSLRSEDTAVYYCTRGAIYDGYDVLDNWGQGTLVTVSS VL: DIQMTQSPSSLSASVGDRVTITCSASQDISNYLNWYQQKPGKAPKLLIYYTSNLHSGVPSRFSGSGSGTDFTLTISSLQPEDFATYYCQQYRKLPWTFGQGTKLEIKR	binds	
CA8 humanised J8M2 (antibody, human IgG1, kappa, V domains shown, humanised, human IgG1/kappa) VH: QVQLVQSGAEVKKPGSSVKVSCKASGYTFTNYWMHWVRQAPGQGLEWMGATYRGHSDTYYNQKFKGRVTITADKSTSTAYMELSSLRSEDTAVYYCTRGAIYDGYDVLDNWGQGTLVTVSS VL: DIQLTQSPSSLSASVGDRVTITCSASQDISNYLNWYQQKPGKAPELVIYYTSNLHSGVPSRFSGSGSGTDYTLTISSLQPEDFATYYCQQYRKLPWTFGQGTKLEIKR	binds	
S307118G03 humanised H4L1 (antibody, human IgG1, kappa, V domains shown, humanised, human IgG1/kappa) VH: QVQLVQSGAEVKKPGSSVKVSCKASGYTFTDYYMKWVRQAPGQGLEWMGEIYPNNGGITYNQKFKGRVTITADKSTSTAYMELSSLRSEDTAVYYCADGYEFVYWGQGTLVTVSS VL: DIQMTQSPSSLSASVGDRVTITCSASQGISNYLNWYQQKPGKAPKLLIYYTSSLHSGVPSRFSGSGSGTDYTLTISSLQPEDFATYYCQQYSKLPWTFGQGTKLEIKR		binding result [4]: no binding (tested: 256 nM (highest analyte concentration))
CA8 humanised J6M0 (antibody, human IgG1, kappa, V domains shown, humanised, human IgG1/kappa; also called CA8 J6M0; humanised J6M0 (wild type)) VH: QVQLVQSGAEVKKPGSSVKVSCKASGGTFSNYWMHWVRQAPGQGLEWMGATYRGHSDTYYNQKFKGRVTITADKSTSTAYMELSSLRSEDTAVYYCARGAIYDGYDVLDNWGQGTLVTVSS VL: DIQMTQSPSSLSASVGDRVTITCSASQDISNYLNWYQQKPGKAPKLLIYYTSNLHSGVPSRFSGSGSGTDFTLTISSLQPEDFATYYCQQYRKLPWTFGQGTKLEIKR		IC50 (read off the curve) [1]: ~0.8 µg/mL
CA8 humanised J7M0 (antibody, human IgG1, kappa, V domains shown, humanised, human IgG1/kappa) VH: QVQLVQSGAEVKKPGSSVKVSCKASGYTFTNYWMHWVRQAPGQGLEWMGATYRGHSDTYYNQKFKGRVTITADKSTSTAYMELSSLRSEDTAVYYCARGAIYDGYDVLDNWGQGTLVTVSS VL: DIQMTQSPSSLSASVGDRVTITCSASQDISNYLNWYQQKPGKAPKLLIYYTSNLHSGVPSRFSGSGSGTDFTLTISSLQPEDFATYYCQQYRKLPWTFGQGTKLEIKR	binds	
CA8 humanised J7M2 (antibody, human IgG1, kappa, V domains shown, humanised, human IgG1/kappa) VH: QVQLVQSGAEVKKPGSSVKVSCKASGYTFTNYWMHWVRQAPGQGLEWMGATYRGHSDTYYNQKFKGRVTITADKSTSTAYMELSSLRSEDTAVYYCARGAIYDGYDVLDNWGQGTLVTVSS VL: DIQLTQSPSSLSASVGDRVTITCSASQDISNYLNWYQQKPGKAPELVIYYTSNLHSGVPSRFSGSGSGTDYTLTISSLQPEDFATYYCQQYRKLPWTFGQGTKLEIKR	binds	
CA8 chimera (antibody, V domains shown, also called chimeric CA8; human chimeric CA8) VH: EVQLQQSGAVLARPGASVKMSCKGSGYTFTNYWMHWVKQRPGQGLEWIGATYRGHSDTYYNQKFKGKAKLTAVTSTSTAYMELSSLTNEDSAVYYCTRGAIYNGYDVLDNWGQGTLVTVSS VL: DIQLTQTTSSLSASLGDRVTISCSASQDISNYLNWYQQKPDGTVELVIYYTSNLHSGVPSRFSGSGSGTDYSLTIGYLEPEDVATYYCQQYRKLPWTFGGGSKLEIKR		EC50 (read off the curve) [5]: ~0.3 µg/mL; EC50 (read off the curve) [6]: ~0.4 µg/mL
